For one substance, percent of A1 released from the holotoxin by PDI results are on record in paper PMC8741891.

This experiment has as its target Escherichia coli heat-labile enterotoxin holotoxin (human enterotoxigenic strain PE0415), nicked and reduced (E. coli (human enterotoxigenic strain PE0415)) (UniProt P43530). The experiment can be described thus: ELISA; […] (1 ug/mL) […] (20 ug/mL, […]) for 1 h at 37 C; […]. For orientation: ELISA stands for enzyme-linked immunosorbent assay.

For the substance “protein disulfide isomerase, reduced (from UniProt P07237 18-508) (enzyme)”, the percent of A1 released from the holotoxin by PDI was found to be 7%.
